Measurements from US20120058906A1 (published 2012).

What was measured:
[1] = molecular target: T1, rHuman HGF R/c-MET/Fc Chimera, CF (R&D Systems Cat#358-MT/CF) (human, UniProt P08581 25-932); assay: ECL (MSD Multi-Spot) titration, antigen spotted on plate; Fab 0.1275 µM; blank spot 530;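 further: blank spot per well as comparator with Hit at signal to blank ratio of 4 or more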
T1 construct: Bought Fc chimera; also called HGF R/Fc; hepatocyte growth factor receptor; Fc part of the bought chimera not given

[2] = molecular target: T2, rHuman CD44/Fc Chimera, CF (R&D Systems Cat#3660-CD) (human, UniProt P16070 21-220); assay: as above
T2 construct: Bought Fc chimera; Fc part of the bought chimera not given

[3] = molecular target: T3, rHuman IGF-1 sR (IGF-1 sR), CF (R&D Systems Cat#391-GR) (human, UniProt P08069 31-932); assay: as above
T3 construct: Bought soluble receptor; also called insulin-like growth factor-1 soluble receptor; IGF-R1

[4] = molecular target: T4, Recombinant Human DLL4 (R&D Systems Cat#1506-D4/CF) (human, UniProt Q9NR61 27-524); assay: as above
T4 construct: Bought recombinant protein; also called delta-like protein 4

[5] = molecular target: T5, rHuman ErbB2/Fc Chimera, CF (R&D Systems Cat#1129-ER) (human, UniProt P04626 23-652); assay: as above
T5 construct: Bought Fc chimera; also called HER2/neu; human epidermal growth factor 2 receptor; Fc part of the bought chimera not given

[6] = molecular target: T1, rHuman HGF R/c-MET/Fc Chimera, CF (R&D …); assay: ECL (MSD Multi-Spot) titration, antigen spotted on plate; Fab 0.51 µM; blank spot 1096;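 further: blank spot per well as comparator with Hit at signal to blank ratio of 4 or more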
[7] = molecular target: T2, rHuman CD44/Fc Chimera, CF (R&D Systems …); assay: as above
[8] = molecular target: T3, rHuman IGF-1 sR (IGF-1 sR), CF (R&D …); assay: as above
[9] = molecular target: T4, Recombinant Human DLL4 (R&D Systems …); assay: as above
[10] = molecular target: T5, rHuman ErbB2/Fc Chimera, CF (R&D …); assay: as above
[11] = molecular target: T1, rHuman HGF R/c-MET/Fc Chimera, CF (R&D …); assay: ECL (MSD Multi-Spot) titration, antigen spotted on plate; Fab 0.03188 µM; blank spot 536;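 further: blank spot per well as comparator with Hit at signal to blank ratio of 4 or more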
[12] = molecular target: T2, rHuman CD44/Fc Chimera, CF (R&D Systems …); assay: as above
[13] = molecular target: T3, rHuman IGF-1 sR (IGF-1 sR), CF (R&D …); assay: as above
[14] = molecular target: T4, Recombinant Human DLL4 (R&D Systems …); assay: as above
[15] = molecular target: T5, rHuman ErbB2/Fc Chimera, CF (R&D …); assay: as above
[16] = molecular target: T1, rHuman HGF R/c-MET/Fc Chimera, CF (R&D …); assay: ECL (MSD Multi-Spot) titration, antigen spotted on plate; Fab 0.00797 µM; blank spot 364;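 further: blank spot per well as comparator with Hit at signal to blank ratio of 4 or more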
[17] = molecular target: T2, rHuman CD44/Fc Chimera, CF (R&D Systems …); assay: as above
[18] = molecular target: T3, rHuman IGF-1 sR (IGF-1 sR), CF (R&D …); assay: as above
[19] = molecular target: T4, Recombinant Human DLL4 (R&D Systems …); assay: as above
[20] = molecular target: T5, rHuman ErbB2/Fc Chimera, CF (R&D …); assay: as above
[21] = molecular target: T3, rHuman IGF-1 sR (IGF-1 sR), CF (R&D …); assay: ECL (MSD Multi-Spot) titration, antigen spotted on plate; Fab 0.48 µM; blank spot 2945
[22] = molecular target: T3, rHuman IGF-1 sR (IGF-1 sR), CF (R&D …); assay: ECL (MSD Multi-Spot) titration, antigen spotted on plate; Fab 0.096 µM; blank spot 917
[23] = molecular target: T3, rHuman IGF-1 sR (IGF-1 sR), CF (R&D …); assay: ECL (MSD Multi-Spot) titration, antigen spotted on plate; Fab 0.0192 µM; blank spot 751

B1: Fab VH4-34_IGHD7-27*01_IGHJ4*01 & L5_IGKJ1*01 (Fab, V domains shown)
VH: QVQLQQWGAGLLKPSETLSLTCAVYGGSFSGYYWSWIRQPPGKGLEWIGEINHSGSTNYNPSLKSRVTISVDTSKNQFSLKLSSVTAADTAVYYCARANWGDYFDYWGQGTLVTVSS
VL: DIQMTQSPSSVSASVGDRVTITCRASQGISSWLAWYQQKPGKAPKLLIYAASSLQSGVPSRFSGSGSGTDFTLTISSLQPEDFATYYCQQANSFPPWTFGQGTKVEIKR
notes: Made as a Fab in E. coli: VH joined to the CH1 of Plasmid A (Flag and His tags), VL joined to the kappa constant region of Plasmid C
An ECL signal [1] of 853, an ECL signal [2] of 926 and an ECL signal [3] of 1040 were found for B1 in this work. For the same binder, the ECL signal [4] was 2380, the ECL signal [5] was 857 and the ECL signal [6] was 1990. It also gave an ECL signal [7] of 2010, an ECL signal [8] of 2240 and an ECL signal [9] of 5180. It also gave an ECL signal [10] of 1530, an ECL signal [11] of 693 and an ECL signal [12] of 653. It also gave an ECL signal [13] of 765, an ECL signal [14] of 1280 and an ECL signal [15] of 584. For the same binder, the ECL signal [16] was 419, the ECL signal [17] was 490 and the ECL signal [18] was 564. The ECL signal [19] was 872 and the ECL signal [20] was 493.

B2: Fab VH1-46_IGHD6-13*01_IGHJ4*01 & A27_IGKJ1*01 (Fab, V domains shown)
VH: QVQLVQSGAEVKKPGASVKVSCKASGYTFTSYYMHWVRQAPGQGLEWMGIINPSGGSTSYAQKFQGRVTMTRDTSTSTVYMELSSLRSEDTAVYYCAREGYSSSWYDYFDYWGQGTLVTVSS
VL: not shown
notes: as for B1
An ECL signal [21] of 8930, an ECL signal [22] of 2450 and an ECL signal [23] of 1830 were found for B2 in this work.
